Bridges are numbered along the chain shown (N, C = ends).
B1: SEQ ID NO 74 (peptide)
peptide: Ac-MWQLCEWNNCWPV-NH2
modifications: disulfide 5-10
SMILES: CSCC[C@H](NC(C)=O)C(=O)N[C@@H](Cc1c[nH]c2ccccc12)C(=O)N[C@@H](CCC(N)=O)C(=O)N[C@@H](CC(C)C)C(=O)N[C@H]1CSSC[C@@H](C(=O)N[C@@H](Cc2c[nH]c3ccccc23)C(=O)N2CCC[C@H]2C(=O)N[C@H](C(N)=O)C(C)C)NC(=O)[C@H](CC(N)=O)NC(=O)[C@H](CC(N)=O)NC(=O)[C@H](Cc2c[nH]c3ccccc23)NC(=O)[C@H](CCC(=O)O)NC1=O
B2: SEQ ID NO 73 (peptide)
peptide: Ac-MWTLCDNWQTCWP-NH2
modifications: disulfide 5-11
SMILES: CSCC[C@H](NC(C)=O)C(=O)N[C@@H](Cc1c[nH]c2ccccc12)C(=O)N[C@H](C(=O)N[C@@H](CC(C)C)C(=O)N[C@H]1CSSC[C@@H](C(=O)N[C@@H](Cc2c[nH]c3ccccc23)C(=O)N2CCC[C@H]2C(N)=O)NC(=O)[C@H]([C@@H](C)O)NC(=O)[C@H](CCC(N)=O)NC(=O)[C@H](Cc2c[nH]c3ccccc23)NC(=O)[C@H](CC(N)=O)NC(=O)[C@H](CC(=O)O)NC1=O)[C@@H](C)O
B3: SEQ ID NO 72 (peptide)
peptide: Ac-MWTLCDTWDTCFP-NH2
modifications: disulfide 5-11
SMILES: CSCC[C@H](NC(C)=O)C(=O)N[C@@H](Cc1c[nH]c2ccccc12)C(=O)N[C@H](C(=O)N[C@@H](CC(C)C)C(=O)N[C@H]1CSSC[C@@H](C(=O)N[C@@H](Cc2ccccc2)C(=O)N2CCC[C@H]2C(N)=O)NC(=O)[C@H]([C@@H](C)O)NC(=O)[C@H](CC(=O)O)NC(=O)[C@H](Cc2c[nH]c3ccccc23)NC(=O)[C@H]([C@@H](C)O)NC(=O)[C@H](CC(=O)O)NC1=O)[C@@H](C)O
B4: SEQ ID NO 75 (peptide)
peptide: Ac-MWVLCEWHECWPG-NH2
modifications: disulfide 5-10
SMILES: CSCC[C@H](NC(C)=O)C(=O)N[C@@H](Cc1c[nH]c2ccccc12)C(=O)N[C@H](C(=O)N[C@@H](CC(C)C)C(=O)N[C@H]1CSSC[C@@H](C(=O)N[C@@H](Cc2c[nH]c3ccccc23)C(=O)N2CCC[C@H]2C(=O)NCC(N)=O)NC(=O)[C@H](CCC(=O)O)NC(=O)[C@H](Cc2c[nH]cn2)NC(=O)[C@H](Cc2c[nH]c3ccccc23)NC(=O)[C@H](CCC(=O)O)NC1=O)C(C)C

Each binder was assayed against T1, DLL3 (target ligand immobilized on a SA sensor chip via streptavidin capture) (Homo sapiens (Human), UniProt Q9NYJ7 27-492, limits assumed) (assay: SPR, Biacore S200, target ligand on SA chip, 25 C, 1:1 fit).
T1 sequence: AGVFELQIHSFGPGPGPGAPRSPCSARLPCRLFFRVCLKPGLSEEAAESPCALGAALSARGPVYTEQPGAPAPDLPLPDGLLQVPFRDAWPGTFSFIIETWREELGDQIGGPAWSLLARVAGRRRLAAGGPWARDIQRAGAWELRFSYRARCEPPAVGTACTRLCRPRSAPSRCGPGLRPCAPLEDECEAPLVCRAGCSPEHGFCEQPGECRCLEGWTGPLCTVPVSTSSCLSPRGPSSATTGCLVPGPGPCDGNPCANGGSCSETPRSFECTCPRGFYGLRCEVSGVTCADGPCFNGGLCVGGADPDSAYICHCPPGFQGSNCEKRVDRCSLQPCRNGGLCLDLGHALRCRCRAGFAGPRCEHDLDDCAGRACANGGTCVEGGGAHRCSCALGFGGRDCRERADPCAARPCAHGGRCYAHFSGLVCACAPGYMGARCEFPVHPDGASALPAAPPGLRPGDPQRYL
Protocol: Target ligand was immobilized on a SA sensor chip via streptavidin capture. A reference surface was set up for nonspecific binding and refractive index changes. For analysis of the kinetics of interactions, varying concentrations of peptides were injected at a flow rate of 50 μL/minute using running buffer containing 20 mM phosphate buffer with 2.7 mM KCl, 137 mM NaCl and 0.05% Surfactant P20. Sensorgram curves were fitted with 1:1 binding model, and affinity and kinetic parameters were obtained using either Biacore S200 evaluation software 1.1.1 or Biacore Insight evaluation 4.0.

**Q.** B1 was tested. Which Kd did it give?
**A.** Its Kd is 110 nM.

**Q.** For B2, which Kd is on record?
**A.** Its Kd is 42 nM.

**Q.** B3 was tested. Which Kd did it give?
**A.** Its Kd is 24 nM.

**Q.** With B4 as the binder, how does the Kd read?
**A.** The Kd was 57 nM.
